The values below come from PMC3438196.

Common to all, as to assay: two-hybrid; MAPPIT (mammalian two-hybrid) in intact HEK293T cells: bait on the EpoR/leptin receptor chimera, prey on gp130 fragments, pXP2d2-rPAP1-luciferase reporter; fold induction of luciferase, Epo-stimulated (10 ng/ml hEpo) over unstimulated; 6-well or 96-well calcium phosphate transfection
(In general: A reporter such as luciferase makes a cellular process visible.)

Assay [1] concerns the target Apobec3G L184A MAPPIT bait (human) (UniProt Q9HC16).
Assay [2] deals with Apobec3G QE132-133AA MAPPIT bait (human) (UniProt Q9HC16).
Apobec3G QE132-133AA MAPPIT bait (human), sequence (Q9HC16 whole entry Q132A/E133A): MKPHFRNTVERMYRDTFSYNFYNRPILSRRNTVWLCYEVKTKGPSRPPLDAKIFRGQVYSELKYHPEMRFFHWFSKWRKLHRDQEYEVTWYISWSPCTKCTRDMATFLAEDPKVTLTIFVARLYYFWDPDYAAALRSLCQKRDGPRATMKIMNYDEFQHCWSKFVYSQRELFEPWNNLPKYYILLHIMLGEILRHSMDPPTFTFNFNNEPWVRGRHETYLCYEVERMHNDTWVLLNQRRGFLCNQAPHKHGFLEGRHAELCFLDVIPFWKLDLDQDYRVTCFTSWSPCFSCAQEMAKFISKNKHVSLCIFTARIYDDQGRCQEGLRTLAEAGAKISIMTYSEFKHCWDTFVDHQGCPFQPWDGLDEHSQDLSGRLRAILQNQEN
In assay [3] the target is Apobec3G T32D MAPPIT bait (human) (UniProt Q9HC16).
Apobec3G T32D MAPPIT bait (human), sequence (Q9HC16 whole entry T32D): as the sequence (Q9HC16 whole entry Q132A/E133A) above, with T32D, A132Q, A133E counted along it
The target of assay [4] is Apobec3G N31S MAPPIT bait (human) (UniProt Q9HC16).
Apobec3G N31S MAPPIT bait (human), sequence (Q9HC16 whole entry N31S): as the sequence (Q9HC16 whole entry Q132A/E133A) above, with N31S, A132Q, A133E counted along it
Assay [5] concerns the target Apobec3G RD102-103SS MAPPIT bait (human) (UniProt Q9HC16).
Assay [6] concerns the target Apobec3G K63E MAPPIT bait (human) (UniProt Q9HC16).
In assay [7] the target is Apobec3G R11S MAPPIT bait (human) (UniProt Q9HC16).
Apobec3G R11S MAPPIT bait (human), sequence (Q9HC16 whole entry R11S): as the sequence (Q9HC16 whole entry Q132A/E133A) above, with R11S, A132Q, A133E counted along it
Assay [8] has as its target Apobec3G Y19A MAPPIT bait (human) (UniProt Q9HC16).
In assay [9] the target is Apobec3G D130A MAPPIT bait (human) (UniProt Q9HC16).
Apobec3G D130A MAPPIT bait (human), sequence (Q9HC16 whole entry D130A): as the sequence (Q9HC16 whole entry Q132A/E133A) above, with D130A, A132Q, A133E counted along it
The target of assay [10] is Apobec3G R136A MAPPIT bait (human) (UniProt Q9HC16).
Apobec3G R136A MAPPIT bait (human), sequence (Q9HC16 whole entry R136A): as the sequence (Q9HC16 whole entry Q132A/E133A) above, with A132Q, A133E, R136A counted along it
The target of assay [11] is Apobec3G D128H MAPPIT bait (human) (UniProt Q9HC16).
Apobec3G D128H MAPPIT bait (human), sequence (Q9HC16 whole entry D128H): as the sequence (Q9HC16 whole entry Q132A/E133A) above, with D128H, A132Q, A133E counted along it
The target in assay [12] is Apobec3G E110K MAPPIT bait (human) (UniProt Q9HC16).
Apobec3G E110K MAPPIT bait (human), sequence (Q9HC16 whole entry E110K): as the sequence (Q9HC16 whole entry Q132A/E133A) above, with E110K, A132Q, A133E counted along it
The target of assay [13] is Apobec3G R14S MAPPIT bait (human) (UniProt Q9HC16).
Apobec3G R14S MAPPIT bait (human), sequence (Q9HC16 whole entry R14S): as the sequence (Q9HC16 whole entry Q132A/E133A) above, with R14S, A132Q, A133E counted along it
For assay [14], the target named is Apobec3G T32E MAPPIT bait (human) (UniProt Q9HC16).
Apobec3G T32E MAPPIT bait (human), sequence (Q9HC16 whole entry T32E): as the sequence (Q9HC16 whole entry Q132A/E133A) above, with T32E, A132Q, A133E counted along it
Assay [15] has as its target Apobec3G RD102-103EK MAPPIT bait (human) (UniProt Q9HC16).
In assay [16] the target is Apobec3G S137A MAPPIT bait (human) (UniProt Q9HC16).
Apobec3G S137A MAPPIT bait (human), sequence (Q9HC16 whole entry S137A): as the sequence (Q9HC16 whole entry Q132A/E133A) above, with A132Q, A133E, S137A counted along it

Apobec3G RD102-103EK MAPPIT bait (human), sequence (Q9HC16 whole entry R102E/D103K): as the sequence (Q9HC16 whole entry Q132A/E133A) above, with R102E, D103K, A132Q, A133E counted along it
Apobec3G Y19A MAPPIT bait (human), sequence (Q9HC16 whole entry Y19A): as the sequence (Q9HC16 whole entry Q132A/E133A) above, with Y19A, A132Q, A133E counted along it
Apobec3G RD102-103SS MAPPIT bait (human), sequence (Q9HC16 whole entry R102S/D103S): as the sequence (Q9HC16 whole entry Q132A/E133A) above, with R102S, D103S, A132Q, A133E counted along it
Apobec3G K63E MAPPIT bait (human), sequence (Q9HC16 whole entry K63E): as the sequence (Q9HC16 whole entry Q132A/E133A) above, with K63E, A132Q, A133E counted along it
Apobec3G L184A MAPPIT bait (human), sequence (Q9HC16 whole entry L184A): as the sequence (Q9HC16 whole entry Q132A/E133A) above, with A132Q, A133E, L184A counted along it

For “Gagpol MAPPIT prey (pMG2-Gagpol) (natural protein)”, the MAPPIT signal, % of WT was 110 % of WT in assay [1]; 80 % of WT in assay [2]; 111 % of WT in [3]; 78 % of WT in assay [4]; 63 % of WT in assay [5]; 104 % of WT in [6]. Further, the MAPPIT signal, % of WT in assay [7] was 83 % of WT; in assay [8], 36 % of WT; in [9] it was 103 % of WT; in assay [10], 48 % of WT; in assay [11], 60 % of WT; in assay [12], 84 % of WT. The MAPPIT signal, % of WT in [13] was 106 % of WT; in assay [14], 81 % of WT; in assay [15], 85 % of WT; in assay [16] it was 127 % of WT.
